The values below come from article PMC7427792, “CryoEM structure of the low-complexity domain of hnRNPA2 and its conversion to pathogenic amyloid” (Nature Communications, 2020).

Series [1] concerns the molecule itself. The experiment in a line: crystal structure; hanging-drop vapour diffusion; segment 9.69 mg ml^-1 in water with 31 mM lithium hydroxide; reservoir 0.15 M ammonium acetate, 35% MPD, 0.1 M Bis-Tris pH 5.5.
Series [2] deals with the molecule itself. As to the kind of experiment: X-ray fibre diffraction; mC-hnRNPA2-LCD hydrogel (~60 mg ml^-1, 4 °C) air-dried between two capillary glass rods; 100 K.

B1: hnRNPA2 mutant core segment GNYNVF (286-291, D290V) (peptide)
peptide: GNYNVF
notes: hexamer segment 286-291 of human hnRNPA2 LCD with the disease variant D290V (multisystem proteinopathy); numbers count on the 341-residue hnRNPA2 (isoform A2); also called mutant segment; disease-causing mutant core segment
Take B1: the binding result in series [1] is “binds”.

B2: mCherry-hnRNPA2-LCD fusion protein (domain or fragment, human, UniProt P22626-2 181-341, looked up)
chain: MQEVQSSRSGRGGNFGFGDSRGGGGNFGPGPGSNFRGGSDGYGSGRGFGDGYNGYGGGPGGGNFGGSPGYGGGRGGYGGGGPGYGNQGGGYGGGYDNYGGGNYGSGNYNDFGNYNQQPSNYGPMKSGNFGGSRNMGGPYGGGNYGPGGSGGSGGYGGRSRY
notes: hnRNPA2 C-terminal low-complexity domain (LCD), human, residues 181-341 of the 341-residue protein (161 residues); printed length 341 = isoform A2 of HNRNPA2B1; Only Gly263-Tyr319 is ordered in the fibril core; also called mC-hnRNPA2-LCD; mCh-hnRNPA2-LCD; source: E. coli BL21(DE3), purified (HisTrap HP column, in 2 M guanidine HCl), dialysed and concentrated; not shown: mCherry, N-terminal, kept
Consider B2, for which the binding result in series [2] is “binds”.
